Measured values reported in the supplement of paper PMC10567573.
± gives the standard deviation.

Assay: protein stability index of a GFP-peptide fusion (GPS, HEK-293T) (PSI 1-6); higher = more stable
[1] = treatment: DMSO, c terminus: a fixed tail appended
[2] = treatment: MLN4924 1 uM, 8 h, c terminus: a fixed tail appended
[3] = treatment: DMSO, c terminus: native
[4] = treatment: MLN4924 1 uM, 8 h, c terminus: native
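Further: 24-mer peptide tiles fused after GFP, lentivirally expressed, FACS-sorted into six equal bins by GFP/DsRed ratio, decoded by Illumina sequencing, PSI is the read-weighted mean bin number.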

Sequence | protein stability index [1] | protein stability index [2] | protein stability index [3] | protein stability index [4]
MSGGGVIRGPAGNNDCRIYVGNLP [SRSF1] | 2.85 ± 0.29 | 2.96 ± 0.51 | – | –
MSIHIVALGNEGDTFHQDNQPSGL [RHOBTB3] | 2.51 ± 0.25 | 2.52 ± 0.4 | – | –
MSRQFTCKSGAAAKGGFSGCSAVL [KRT71] | 2.59 ± 0.35 | 2.18 ± 0.43 | – | –
MSVAIRKRSWEEHVTHWMGQPFNS [DLC1] | 2.41 ± 0.65 | 2.43 ± 0.18 | – | –
MTLEEFSAGEQKTERMDKVGDALE [GADD45A] | 5.28 ± 0.15 | 5.36 ± 0.18 | – | –
MVILISIVIFCLETLPELKDDKDF [KCNA1] | 3.03 ± 0.71 | 2.72 ± 0.52 | – | –
MVLLTMIARVADGLPLAASMQEDE [SEC22B] | 3.26 ± 0.71 | 2.94 ± 0.2 | – | –
MVVSREEVELAYQEAMFNMATLNR [SEPHS2] | 2.93 ± 0.29 | 3.03 ± 0.2 | – | –
MWWRGCKIKAIMALVAAILLLVII [VAMP4] | 2.89 ± 0.096 | 2.855 ± 0.027 | – | –
MYDNELWAPASEGLKPGPEDGPGK [SERTAD1] | 4.99 ± 0.46 | 5.25 ± 0.22 | – | –
NAGKVNLPKELPADAVNLTIPASL [PLAGL1] | 4.4 ± 0.25 | 4.43 ± 0.22 | – | –
NARAQQRAAAQQRRSFLNAHHRSG [GNAS] | 4.28 ± 0.32 | 4.36 ± 0.14 | – | –
NASRSLYPDAEDPQLGLDGPGEPD [PSD2] | 5.4 ± 0.2 | 5.51 ± 0.22 | – | –
NCLPKHLLHSVNQRFGSNNTSGS [KLHDC2] | – | – | 2.69 ± 0.33 | 2.99 ± 0.28
NDADKAINTLNGLKLQTKTIKVSY [ELAVL3] | 2.96 ± 0.23 | 3.11 ± 0.25 | – | –
NDPSGSEEADFLSAETGSPRLTMH [IRX6] | 5.16 ± 0.083 | 5.2 ± 0.057 | – | –
NDSGICMSPESYLGSPQHSPSTRG [ATF4] | 4.53 ± 0.29 | 4.86 ± 0.15 | – | –
NFEKLRLSLQDQVDTLTFQSQSLR [MTUS2] | 3.01 ± 0.22 | 3.14 ± 0.37 | – | –
NHLLESMPLREGSSFQDLLGDALA [HES6] | 3.34 ± 0.31 | 3.4 ± 0.31 | – | –
NILLKNLVTIARKASLWQFLSSEK [TRIM43] | 2.17 ± 0.42 | 2.13 ± 0.18 | – | –
NIPMETEETHLEETTESQQNGEEG [SMARCE1] | 5.39 ± 0.5 | 5.6 ± 0.21 | – | –
NKEYIKRLLMSQADKMTAEEVDQM [MYL5] | 4.53 ± 0.28 | 4.48 ± 0.23 | – | –

Sequence | protein stability index [1] | protein stability index [2] | protein stability index [3] | protein stability index [4]
NKINAGMYILSPAVLRRIQLQPTS [GMPPB] | 2.24 ± 0.24 | 2.28 ± 0.38 | – | –
NKLPEGVPQPARMPYISDKHPRQT [KLHL20] | 4.69 ± 0.12 | 4.77 ± 0.15 | – | –
NKRKTYTESYIARPDGDCASSLNG [ZC2HC1A] | 4.18 ± 0.23 | 4.44 ± 0.3 | – | –
NKTLLRLRLRKERVSDVQKVLQGG [PKD2L1] | 2.65 ± 0.23 | 2.94 ± 0.35 | – | –
NLGGGDPKGWRQLAQEAEAWLNYP [OAS1] | 3.22 ± 0.26 | 3.37 ± 0.26 | – | –
NNKKWILSASKDRTMRLWNIEEID [WDR88] | 2.66 ± 0.12 | 2.86 ± 0.44 | – | –
NNWPPLPSFCPVQPCFFQDISMEI [SCAMP3] | 2.4 ± 0.53 | 2.55 ± 0.5 | – | –
NPQRQGLLKTPWRAASAMQFFTKG [GCH1] | 2.89 ± 0.29 | 2.76 ± 0.21 | – | –
NPYHQPYISRKYFATRPGAIETAM [TPRG1] | 2.22 ± 0.18 | 2.52 ± 0.25 | – | –
NVGRVHRVAKKLQSGLVWTNCWLI [ALDH8A1] | 3.04 ± 0.41 | 2.61 ± 0.49 | – | –
NVVPIHVPPTTENKPKVQCCQNI [RAB11A] | – | – | 4.13 ± 0.19 | 4.12 ± 0.11
NWVIPAISAVAVALMYRLYMAED [CYB5A] | – | – | 3.92 ± 0.12 | 4.02 ± 0.19
NYRSFEPILRLLPQGISPVSQHWA [ZER1] | 2 ± 0.27 | 2.09 ± 0.26 | – | –
PAADGARAPRSPGQVTPRGLRLRL [C6orf223] | 3.96 ± 0.12 | 3.97 ± 0.19 | – | –
PAASNSSDLFDLMGSSQATMTSSQ [CLINT1] | 5.06 ± 0.16 | 5.02 ± 0.17 | – | –
PAEEAGPEGGLEEPDALDDSLTSL [FOXJ1] | 5.6 ± 0.23 | 5.56 ± 0.34 | – | –
PALETQPQGDEEDIASRYPTLWTE [SMOC2] | 4.78 ± 0.34 | 4.85 ± 0.54 | – | –
PAQSHTLQANDVFHKQQWFNCIRA [NET1] | 2.71 ± 0.38 | 2.71 ± 0.3 | – | –
PARDGVEASAEGPRAVFVLLEERR [TFE3] | 4.26 ± 0.27 | 4.23 ± 0.073 | – | –
PAVPEEILKRLLKEQHLWDVDLLD [DLC1] | 2.97 ± 0.55 | 3.12 ± 0.34 | – | –
PCATVSVFPGARLLTIGDANGEIQ [CARM1] | 3.31 ± 0.38 | 3.28 ± 0.16 | – | –
PDFYKQSSPNLQVSSDGTLKYMEV [PCDHGC5] | 3.4 ± 0.16 | 3.39 ± 0.45 | – | –

Sequence | protein stability index [1] | protein stability index [2] | protein stability index [3] | protein stability index [4]
PDGKEMAEEYDEKTSELLVRKWRV [DPCD] | 4.31 ± 0.23 | 4.41 ± 0.11 | – | –
PDHQVPYGHDYPRAAYQQVIQPAL [TRAF3IP2] | 3.48 ± 0.29 | 3.56 ± 0.24 | – | –
PGAYYPYERTLGQYQYERYGAVEL [IRX6] | 2.3 ± 0.33 | 2.41 ± 0.21 | – | –
PGITRVYSIGRSVEGRHLYVLEFS [CPN1] | 3.12 ± 0.91 | 2.81 ± 0.63 | – | –
PGLSQGPGKETLESALIALDSEKP [EHMT1] | 5.33 ± 0.28 | 5.31 ± 0.18 | – | –
PGPPGSSRPVKGQVVTVHLQTSLE [FKBP8] | 3.5 ± 0.48 | 3.53 ± 0.22 | – | –
PGSTRPHRSACSSAAVRGHPRALP [HAGHL] | 3.19 ± 0.23 | 3.15 ± 0.24 | – | –
PIDQGPAIGRVRVLEEQLVKAKEQ [FUT8] | 5 ± 0.16 | 5.09 ± 0.27 | – | –
PIMSGQGLAGFFASVAMICAIASG [SLC29A1] | 3.12 ± 0.21 | 3.13 ± 0.48 | – | –
PIPHVFSAGTGSAILPHFHHAFR [PLAGL1] | – | – | 3.04 ± 0.22 | 3.17 ± 0.16
PKSPATPKQLRLINQPLPDLKNVK [MAP2] | 4.51 ± 0.27 | 4.793 ± 0.034 | – | –
PNDEHWKALSRKSTSFRVYIMAFD [FBXO33] | 2.11 ± 0.52 | 2.27 ± 0.45 | – | –
PNDEVHPLLGVKGDGKSKKKQAGR [RBBP5] | 5.35 ± 0.27 | 5.2 ± 0.35 | – | –
PPETVQNWIELLSGETWNPLKLHY [GOLPH3] | 2.17 ± 0.24 | 2.12 ± 0.21 | – | –
PPGPDRLPSNLVQYYDDEKKTWKI [KLHL14] | 4.87 ± 0.082 | 4.7 ± 0.33 | – | –
PPKQAQKEQRKQMKGRGQLEKPPA [TBC1D10A] | 5.26 ± 0.18 | 5.29 ± 0.21 | – | –
PPPELMDVSLVGGPADCSPPHPAP [DYRK1B] | 5.08 ± 0.22 | 5.1 ± 0.11 | – | –
PPPPIDNGDITSFLLSVYAPGSSV [CFHR2] | 2.66 ± 0.33 | 2.65 ± 0.37 | – | –
PPPPPGPPPPPGLPSDGDHQVPTT [WASL] | 5.48 ± 0.26 | 5.63 ± 0.21 | – | –
PPPPPKEGHQEGLVELPASFRELL [SCNN1D] | 4.29 ± 0.12 | 4.29 ± 0.1 | – | –
PPRGPLAKHRLVPPAQGRVSRRLS [TRIM9] | 4.21 ± 0.27 | 4.16 ± 0.49 | – | –
